The results in this text go back to US20110039771A1 (University of California, published 2011).

Where no end group is shown, it is not given here.

Holding throughout (experiment): dot blot: peptide on nitrocellulose, probed with biotinylated-HN and streptavidin-HRP
One assay concerns the target T1, SHLP2 (human).
T1 construct: Dotted on nitrocellulose; also called small humanin-like peptide 2; SHLP2 (M)
T1 peptide: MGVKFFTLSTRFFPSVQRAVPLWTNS
How it is done: (§1) FIG. 12 HN binds to SHLP2 and SHLP4. 2, 5 and 10 nmol of IGF-1 (negative control), HN, SHLP1, 2 or 4 were dotted on to nitrocellulose membrane and left to dry. The membrane was blocked, incubated with biotinylated-HN and streptavidin-HRP and exposed by autoradiography.
(§2) To test a dimerization hypothesis, we performed a dot-blot using biotinylated-HN. Two, 5 or 10 nmol IGF-I (negative control), HN (positive control) or SHLP peptide were dotted on to nitrocellulose membrane, and their ability to bind to biotinylated-HN was assessed immunologically. […] Specific interactions that occur may be determined using, e.g., dot blots with biotinylated SHLPs, and/or antibodies against specific SHLPs.

In the next assay the target is T2, SHLP1 (human).
T2 construct: Dotted on nitrocellulose; also called small humanin-like peptide 1; SHLP1 (M)
T2 peptide: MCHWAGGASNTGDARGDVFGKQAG
On the procedure:
as §1, §2

A further assay concerns the target T3, SHLP4 (human).
T3 construct: Dotted on nitrocellulose; also called small humanin-like peptide 4; SHLP4 (M)
T3 peptide: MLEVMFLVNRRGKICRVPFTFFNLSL
On the procedure:
as §1, §2

Another assay deals with T4, humanin (HN) (human).
T4 construct: Unlabelled HN dotted on nitrocellulose as positive control; also called Humanin (M)
T4 peptide: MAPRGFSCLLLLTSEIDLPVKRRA
On the procedure: as §1, §2

B1: biotinylated-HN (peptide)
peptide: MAPRGFSCLLLLTSEIDLPVKRRA
modifications: also: biotinylated, site not given here
notes: Probe in solution in the dot blot, detected with streptavidin-HRP; also called biotinylated humanin
On to B1, for which the binding result with SHLP2 is on record as “binds”; in the assay with SHLP1 it was “no binding (tested: 2, 5 or 10 nmol dotted)”; in the assay with SHLP4, “binds”; with humanin (HN), “binds”.
